Experimental data taken from patent US20220118103A1, “METHOD FOR DECREASING IMMUNOGENICITY OF PROTEIN AND PEPTIDE” (HANMI PHARM. CO., LTD., priority 2014, published 2022).
“Also recorded” adds a separate entry of the source. Like-named read-outs stand apart in the source and are kept apart here. Blank lines part the entries; values can stand above or below the substance they belong to.

Experiments:
[1] = clinical, literature; cited from earlier work
[2] = Production of antibodies against long-acting insulinotropic peptide in normal rats, 26-week administration (bridging ELISA); assay type: in vivo, Sprague Dawley rat; details: for % positive / Positive (animals with antibody) / Time point (of positive antibody finding): SD rat
Description: The blood was collected before and during administration, at the 13rd, 19th and 26th week, and at the end of the recovery period, the serum was separated from this. It was determined on whether to produce the antibodies against the insulinotropic peptide.
(§1) In order to detect whether the conjugate of Example 3 has produced an anti-drug antibody (ADA) in the body of rat or Cynomolgus monkey, the conjugate was examined by the bridging ELISA method. The biotinylated conjugate of Example 3 was bound to the 96-well microplate in which streptavidin was coupled to the bottom thereof, and washed with water. Digoxigenin(DIG)-labeled conjugate of Example 3 (hereinafter, HM11260C) was added along with the serum samples of rat or monkey to react and then washed with water. Then, the horseradish peroxidase-coupled anti-DIG antibody (anti-DIG-POD antibody) was added and developed by TMB substrate (3,3′,5,5′-tetramethylbenzidine substrate).
(§2) Measurement sensitivity in the rat serum was 3.1 ng/ml, and the measurement sensitivity in monkey serum was 12.5 ng/ml. To evaluate the neutralizing capacity against HM11260C of detected anti HM11260C antibody, serum samples and HM11260C were added to the human […] cell line (GLP-1R/CHO) and then the inhibition rate of cAMP-induction was measured.

[3] = test system: human GLP-1 overexpressed cell line (GLP-1R/CHO); experiment: Neutralizing capacity of detected anti-HM11260C antibody: inhibition of cAMP induction; assay type: cell-based; details: for Neutralizing Ab: SD rat serum
Description: as §2

[4] = Production of antibodies in Cynomolgus monkey, 26-week administration (bridging ELISA); assay type: in vivo
Description: The blood was taken before and during administration, at the 12th, 19th and 26th week, and at the end of the recovery period, the serum was separated from this. It was determined whether to produce the antibodies against the insulinotropic peptide.
as §1, §2

[5] = test system: peripheral blood mononuclear cells (PBMC) of the donor, CD8+ T cells removed
[6] = test system: peripheral blood mononuclear cells (PBMC) of the donor, CD8+ T cells removed; remark: listed apart in the source
[7] = Total of all groups incl. vehicle, n=200
[8] = Total of all groups incl. vehicle, n=40

Substance: Lixisenatide
patients who produced an antibody [1]: 60-71%

Substance: Imidazo-Acetyl Exendin-4 (Lys27)-Immunoglobulin Fc Conjugate [HM11260C]
% positive ([2]; 26 weeks, high dose, n=60): 1.6%
% positive ([2]; 26 weeks, low dose, n=40): 2.5%
% positive ([2]; 26 weeks, mid dose, n=40): 0%
Positive (animals with antibody) ([2]; s.c. once a week 26 weeks + 4 weeks recovery, high dose, n=60): 1
Positive (animals with antibody) ([2]; s.c. once a week 26 weeks + 4 weeks recovery, low dose, n=40): 1
Positive (animals with antibody) ([2]; s.c. once a week 26 weeks + 4 weeks recovery, mid dose, n=40): 0
% positive [2, 7]: 1.0%
Positive (animals with antibody) [2, 7]: 2
Time point (of positive antibody finding) ([2]; high dose): recovery
Time point (of positive antibody finding) ([2]; low dose): Week 13
subjects in which antibodies were detected ([2]; among 160 rats administered with the drug): two
Neutralizing Ab ([3]; Total of all groups): 0
Neutralizing Ab ([3]; high dose): 0
Neutralizing Ab ([3]; low dose): 0
Neutralizing Ab ([3]; mid dose): 0
neutralizing ability of the detected antibodies ([3]; sera of the two antibody-positive rats): not neutralizing antibodies; also recorded: no neutralizing ability
% positive [4, 8]: 0%
Positive/total [4, 8]: 0
production of antibodies ([4]; all subjects): no production of the antibodies in all subjects was detected
% positive ([4]; high dose, n=12): 0%
% positive ([4]; low dose, n=8): 0%
% positive ([4]; mid dose, n=8): 0%
Positive/total ([4]; s.c. once a week 26 weeks + 4 weeks recovery, high dose, n=12): 0
Positive/total ([4]; s.c. once a week 26 weeks + 4 weeks recovery, low dose, n=8): 0
Positive/total ([4]; s.c. once a week 26 weeks + 4 weeks recovery, mid dose, n=8): 0

Frequency of Response (%) [5]: 12%
Frequency of Response (%) [6]: 12%
Substance: imidazoacetyl-exendin-4 [CA Exendin-4]
Proliferation and ELISpot % [5]: 10%

Substance: Keyhole Limpet Haemocyanin [KLH, reference compound]
Proliferation and ELISpot % [5]: 80%
